Sequences and labels used below:
B1: ATP8A2-CDC50A complex (Homo sapiens) (protein)
chain: MLNGAGLDKALKMSLPRRSRIRSSVGPVRSSLGYKKAEDEMSRATSVGDQLEAPARTIYLNQPHLNKFRDNQISTAKYSVLTFLPRFLYEQIRRAANAFFLFIALLQQIPDVSPTGRYTTLVPLIIILTIAGIKEIVEDFKRHKADNAVNKKKTIVLRNGMWHTIMWKEVAVGDIVKVVNGQYLPADVVLLSSSEPQAMCYVETANLDGETNLKIRQGLSHTADMQTREVLMKLSGTIECEGPNRHLYDFTGNLNLDGKSLVALGPDQILLRGTQLRNTQWVFGIVVYTGHDTKLMQNSTKAPLKRSNVEKVTNVQILVLFGILLVMALVSSAGALYWNRSHGEKNWYIKKMDTTSDNFGYNLLTFIILYNNLIPISLLVTLEVVKYTQALFINWDTDMYYIGNDTPAMARTSNLNEELGQVKYLFSDKTGTLTCNIMNFKKCSIAGVTYGHFPELAREPSSDDFCRMPPPCSDSCDFDDPRLLKNIEDRHPTAPCIQEFLTLLAVCHTVVPEKDGDNIIYQASSPDEAALVKGAKKLGFVFTARTPFSVIIEAMGQEQTFGILNVLEFSSDRKRMSVIVRTPSGRLRLYCKGADNVIFERLSKDSKYMEETLCHLEYFATEGLRTLCVAYADLSENEYEEWLKVYQEASTILKDRAQRLEECYEIIEKNLLLLGATAIEDRLQAGVPETIATLLKAEIKIWVLTGDKQETAINIGYSCRLVSQNMALILLKEDSLDATRAAITQHCTDLGNLLGKENDVALIIDGHTLKYALSFEVRRSFLDLALSCKAVICCRVSPLQKSEIVDVVKKRVKAITLAIGDGANDVGMIQTAHVGVGISGNEGMQATNNSDYAIAQFSYLEKLLLVHGAWSYNRVTKCILYCFYKNVVLYIIELWFAFVNGFSGQILFERWCIGLYNVIFTALPPFTLGIFERSCTQESMLRFPQLYKITQNGEGFNTKVFWGHCINALVHSLILFWFPMKALEHDTVLTSGHATDYLFVGNIVYTYVVVTVCLKAGLETTAWTKFSHLAVWGSMLTWLVFFGIYSTIWPTIPIAPDMRGQATMVLSSAHFWLGLFLVPTACLIEDVAWRAAKHTCKKTLLEEVQELETKSRVLGKAVLRDSNGKRLNERDRLIKRLGRKTPPTLFRGSSLQQGVPHGYAFSQEEHGAVSQEEVIRAYDTTKKKSRKK
notes: heterodimer; with Cell cycle control protein 50A
B2: ATP8A2-CDC50A complex (Homo sapiens; E459Q) (protein)
chain: MLNGAGLDKALKMSLPRRSRIRSSVGPVRSSLGYKKAEDEMSRATSVGDQLEAPARTIYLNQPHLNKFRDNQISTAKYSVLTFLPRFLYEQIRRAANAFFLFIALLQQIPDVSPTGRYTTLVPLIIILTIAGIKEIVEDFKRHKADNAVNKKKTIVLRNGMWHTIMWKEVAVGDIVKVVNGQYLPADVVLLSSSEPQAMCYVETANLDGETNLKIRQGLSHTADMQTREVLMKLSGTIECEGPNRHLYDFTGNLNLDGKSLVALGPDQILLRGTQLRNTQWVFGIVVYTGHDTKLMQNSTKAPLKRSNVEKVTNVQILVLFGILLVMALVSSAGALYWNRSHGEKNWYIKKMDTTSDNFGYNLLTFIILYNNLIPISLLVTLEVVKYTQALFINWDTDMYYIGNDTPAMARTSNLNEELGQVKYLFSDKTGTLTCNIMNFKKCSIAGVTYGHFPELARQPSSDDFCRMPPPCSDSCDFDDPRLLKNIEDRHPTAPCIQEFLTLLAVCHTVVPEKDGDNIIYQASSPDEAALVKGAKKLGFVFTARTPFSVIIEAMGQEQTFGILNVLEFSSDRKRMSVIVRTPSGRLRLYCKGADNVIFERLSKDSKYMEETLCHLEYFATEGLRTLCVAYADLSENEYEEWLKVYQEASTILKDRAQRLEECYEIIEKNLLLLGATAIEDRLQAGVPETIATLLKAEIKIWVLTGDKQETAINIGYSCRLVSQNMALILLKEDSLDATRAAITQHCTDLGNLLGKENDVALIIDGHTLKYALSFEVRRSFLDLALSCKAVICCRVSPLQKSEIVDVVKKRVKAITLAIGDGANDVGMIQTAHVGVGISGNEGMQATNNSDYAIAQFSYLEKLLLVHGAWSYNRVTKCILYCFYKNVVLYIIELWFAFVNGFSGQILFERWCIGLYNVIFTALPPFTLGIFERSCTQESMLRFPQLYKITQNGEGFNTKVFWGHCINALVHSLILFWFPMKALEHDTVLTSGHATDYLFVGNIVYTYVVVTVCLKAGLETTAWTKFSHLAVWGSMLTWLVFFGIYSTIWPTIPIAPDMRGQATMVLSSAHFWLGLFLVPTACLIEDVAWRAAKHTCKKTLLEEVQELETKSRVLGKAVLRDSNGKRLNERDRLIKRLGRKTPPTLFRGSSLQQGVPHGYAFSQEEHGAVSQEEVIRAYDTTKKKSRKK
notes: as for B1
B3: ATP8A2-CDC50A complex (Homo sapiens; E459D) (protein)
chain: MLNGAGLDKALKMSLPRRSRIRSSVGPVRSSLGYKKAEDEMSRATSVGDQLEAPARTIYLNQPHLNKFRDNQISTAKYSVLTFLPRFLYEQIRRAANAFFLFIALLQQIPDVSPTGRYTTLVPLIIILTIAGIKEIVEDFKRHKADNAVNKKKTIVLRNGMWHTIMWKEVAVGDIVKVVNGQYLPADVVLLSSSEPQAMCYVETANLDGETNLKIRQGLSHTADMQTREVLMKLSGTIECEGPNRHLYDFTGNLNLDGKSLVALGPDQILLRGTQLRNTQWVFGIVVYTGHDTKLMQNSTKAPLKRSNVEKVTNVQILVLFGILLVMALVSSAGALYWNRSHGEKNWYIKKMDTTSDNFGYNLLTFIILYNNLIPISLLVTLEVVKYTQALFINWDTDMYYIGNDTPAMARTSNLNEELGQVKYLFSDKTGTLTCNIMNFKKCSIAGVTYGHFPELARDPSSDDFCRMPPPCSDSCDFDDPRLLKNIEDRHPTAPCIQEFLTLLAVCHTVVPEKDGDNIIYQASSPDEAALVKGAKKLGFVFTARTPFSVIIEAMGQEQTFGILNVLEFSSDRKRMSVIVRTPSGRLRLYCKGADNVIFERLSKDSKYMEETLCHLEYFATEGLRTLCVAYADLSENEYEEWLKVYQEASTILKDRAQRLEECYEIIEKNLLLLGATAIEDRLQAGVPETIATLLKAEIKIWVLTGDKQETAINIGYSCRLVSQNMALILLKEDSLDATRAAITQHCTDLGNLLGKENDVALIIDGHTLKYALSFEVRRSFLDLALSCKAVICCRVSPLQKSEIVDVVKKRVKAITLAIGDGANDVGMIQTAHVGVGISGNEGMQATNNSDYAIAQFSYLEKLLLVHGAWSYNRVTKCILYCFYKNVVLYIIELWFAFVNGFSGQILFERWCIGLYNVIFTALPPFTLGIFERSCTQESMLRFPQLYKITQNGEGFNTKVFWGHCINALVHSLILFWFPMKALEHDTVLTSGHATDYLFVGNIVYTYVVVTVCLKAGLETTAWTKFSHLAVWGSMLTWLVFFGIYSTIWPTIPIAPDMRGQATMVLSSAHFWLGLFLVPTACLIEDVAWRAAKHTCKKTLLEEVQELETKSRVLGKAVLRDSNGKRLNERDRLIKRLGRKTPPTLFRGSSLQQGVPHGYAFSQEEHGAVSQEEVIRAYDTTKKKSRKK
notes: as for B1

Substrate in this series: CCCCCCCC/C=C\CCCCCCCC(=O)OC[C@H](COP(=O)(O)OC[C@H](N)C(=O)O)OC(=O)CCCCCCC/C=C\CCCCCCCC
Kind of series: colorimetric phosphate-release ATPase assay, Michaelis-Menten fit. It is filed as biochemical, Homo sapiens. Conditions: PS activation constant (not association constant), 5 mM ATP, DOPC:DOPS mixtures at 2.5 mg/ml total lipid, 10 mM CHAPS, 12.5 mM MgCl2, pH 7.5, 37°C.
Turning to B1, the K0.5 came out at 14.3 ± 4.3 µM.

For B2, the K0.5 is 8.4 ± 3.1 µM. To B3 belongs 19.3 ± 4.2 µM.
